In patent US20240124575A1:
Read-outs that look alike come from different tables or passages of the source. Blank lines part the entries; values can stand above or below the substance they belong to.

Key:
[1] = biological target: human CD33-His (extracellular domain Asp 18-His 259) (human) (UniProt P20138); test: ELISA, antigen coated
[2] = biological target: human CD33 on U937 cells (endogenous) (human) (UniProt P20138); test: FACS, U937 cells
[3] = biological target: human CD33 on CHO-K1 cells (CHO-K1-human CD33) (human) (UniProt P20138); test: FACS, CHO-K1-human CD33 cells
[4] = biological target: human CD33-His (extracellular domain Asp 18-His 259) (human) (UniProt P20138); test: ELISA, antigen coated; remark: listed apart in the source
[5] = biological target: human CD33 on CHO-K1 cells (CHO-K1-human CD33) (human) (UniProt P20138); test: FACS, CHO-K1-human CD33 cells; remark: listed apart in the source
[6] = biological target: human CD33-C2-his (human) (UniProt P20138); test: ELISA, antigen coated
[7] = biological target: murine CD33-His protein (murine) (UniProt Q63994); test: ELISA, antigen coated
[8] = biological target: human CD33-His (extracellular domain Asp 18-His 259) (human) (UniProt P20138); test: ELISA, antigen coated; remark: listed apart in the source
[9] = biological target: human CD33-V-his (human) (UniProt P20138); test: ELISA, antigen coated
[10] = biological target: human CD33 on U937 cells (endogenous) (human) (UniProt P20138); test: FACS, U937 cells; remark: listed apart in the source
[11] = biological target: human CD33-his protein (human) (UniProt P20138); test: competition ELISA, coated human CD33-his, vs Biotin-C33B904 at EC80; antibody 0 nM (no competitor)
[12] = biological target: human CD33-his protein (human) (UniProt P20138); test: competition ELISA, coated human CD33-his, vs Biotin-C33B904 at EC80; antibody 15.63 nM
[13] = biological target: human CD33-his protein (human) (UniProt P20138); test: competition ELISA, coated human CD33-his, vs Biotin-C33B904 at EC80; antibody 0.49 nM
[14] = biological target: human CD33-his protein (human) (UniProt P20138); test: competition ELISA, coated human CD33-his, vs Biotin-C33B904 at EC80; antibody 0.98 nM
[15] = biological target: human CD33-his protein (human) (UniProt P20138); test: competition ELISA, coated human CD33-his, vs Biotin-C33B904 at EC80; antibody 1.95 nM
[16] = biological target: human CD33-his protein (human) (UniProt P20138); test: competition ELISA, coated human CD33-his, vs Biotin-C33B904 at EC80; antibody 7.81 nM
[17] = biological target: human CD33-his protein (human) (UniProt P20138); test: competition ELISA, coated human CD33-his, vs Biotin-C33B904 at EC80; antibody 500 nM
[18] = biological target: human CD33-his protein (human) (UniProt P20138); test: competition ELISA, coated human CD33-his, vs Biotin-C33B904 at EC80; antibody 3.91 nM
[19] = biological target: human CD33-his protein (human) (UniProt P20138); test: competition ELISA, coated human CD33-his, vs Biotin-C33B904 at EC80; antibody 250.00 nM
[20] = biological target: human CD33-his protein (human) (UniProt P20138); test: competition ELISA, coated human CD33-his, vs Biotin-C33B904 at EC80; antibody 31.25 nM
[21] = biological target: human CD33-his protein (human) (UniProt P20138); test: competition ELISA, coated human CD33-his, vs Biotin-C33B904 at EC80; antibody 15.63 nM; remark: listed apart in the source
[22] = biological target: human CD33-his protein (human) (UniProt P20138); test: competition ELISA, coated human CD33-his, vs Biotin-C33B904 at EC80; antibody 500 nM; remark: listed apart in the source
[23] = biological target: human CD33-his protein (human) (UniProt P20138); test: competition ELISA, coated human CD33-his, vs Biotin-C33B904 at EC80; antibody 31.25 nM; remark: listed apart in the source
[24] = biological target: human CD33-his protein (human) (UniProt P20138); test: competition ELISA, coated human CD33-his, vs Biotin-C33B904 at EC80; antibody 0.98 nM; remark: listed apart in the source
[25] = biological target: human CD33-his protein (human) (UniProt P20138); test: competition ELISA, coated human CD33-his, vs Biotin-C33B904 at EC80; antibody 0.49 nM; remark: listed apart in the source
[26] = biological target: human CD33-his protein (human) (UniProt P20138); test: competition ELISA, coated human CD33-his, vs Biotin-C33B904 at EC80; antibody 62.50 nM
[27] = biological target: human CD33-his protein (human) (UniProt P20138); test: competition ELISA, coated human CD33-his, vs Biotin-C33B904 at EC80; antibody 125.00 nM
[28] = biological target: human CD33-his protein (human) (UniProt P20138); test: competition ELISA, coated human CD33-his, vs Biotin-C33B904 at EC80; antibody 3.91 nM; remark: listed apart in the source
[29] = biological target: human CD33-his protein (human) (UniProt P20138); test: competition ELISA, coated human CD33-his, vs Biotin-C33B904 at EC80; antibody 1.95 nM; remark: listed apart in the source
[30] = biological target: human CD33-his protein (human) (UniProt P20138); test: competition ELISA, coated human CD33-his, vs Biotin-C33B904 at EC80; antibody 0 nM (no competitor); remark: listed apart in the source
[31] = biological target: human CD33-his protein (human) (UniProt P20138); test: competition ELISA, coated human CD33-his, vs Biotin-C33B904 at EC80; antibody 250.00 nM; remark: listed apart in the source
[32] = biological target: human CD33-his protein (human) (UniProt P20138); test: competition ELISA, coated human CD33-his, vs Biotin-C33B904 at EC80; antibody 125.00 nM; remark: listed apart in the source
[33] = biological target: human CD33-his protein (human) (UniProt P20138); test: competition ELISA, coated human CD33-his, vs Biotin-C33B904 at EC80; antibody 7.81 nM; remark: listed apart in the source
[34] = biological target: human CD33-his protein (human) (UniProt P20138); test: competition ELISA, coated human CD33-his, vs Biotin-C33B904 at EC80; antibody 62.50 nM; remark: listed apart in the source

Chain of human CD33-His (extracellular domain Asp 18-His 259) (human) (P20138 18-259 limits assumed): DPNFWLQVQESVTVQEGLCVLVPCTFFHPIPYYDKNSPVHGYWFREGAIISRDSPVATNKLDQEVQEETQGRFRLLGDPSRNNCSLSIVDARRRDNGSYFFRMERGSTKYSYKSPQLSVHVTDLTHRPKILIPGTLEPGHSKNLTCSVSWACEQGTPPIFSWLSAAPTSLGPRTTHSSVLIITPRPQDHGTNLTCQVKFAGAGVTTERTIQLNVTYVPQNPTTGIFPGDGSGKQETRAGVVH
Chain of human CD33-his protein (human) (P20138 18-259 limits assumed): as above
Chain of murine CD33-His protein (murine) (Q63994 18-240 limits assumed): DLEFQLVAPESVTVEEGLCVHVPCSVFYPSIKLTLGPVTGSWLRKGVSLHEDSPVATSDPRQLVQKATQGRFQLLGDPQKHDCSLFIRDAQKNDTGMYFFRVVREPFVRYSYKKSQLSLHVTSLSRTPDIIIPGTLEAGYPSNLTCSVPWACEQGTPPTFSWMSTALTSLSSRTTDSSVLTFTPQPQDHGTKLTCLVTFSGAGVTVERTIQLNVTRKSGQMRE
Chain of human CD33-V-his (human) (P20138 other isoform, or with tags, fused parts or gaps limits assumed): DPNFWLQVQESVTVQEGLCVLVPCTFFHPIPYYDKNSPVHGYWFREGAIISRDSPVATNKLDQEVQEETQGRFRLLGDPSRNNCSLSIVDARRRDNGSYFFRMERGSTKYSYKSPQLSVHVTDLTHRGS
Chain of human CD33-C2-his (human) (P20138 other isoform, or with tags, fused parts or gaps limits assumed): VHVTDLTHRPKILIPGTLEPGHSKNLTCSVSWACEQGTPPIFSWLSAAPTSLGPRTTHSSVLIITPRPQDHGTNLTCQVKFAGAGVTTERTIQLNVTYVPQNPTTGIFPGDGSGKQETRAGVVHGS
Chain of human CD33 on CHO-K1 cells (CHO-K1-human CD33) (human) (P20138 18-364): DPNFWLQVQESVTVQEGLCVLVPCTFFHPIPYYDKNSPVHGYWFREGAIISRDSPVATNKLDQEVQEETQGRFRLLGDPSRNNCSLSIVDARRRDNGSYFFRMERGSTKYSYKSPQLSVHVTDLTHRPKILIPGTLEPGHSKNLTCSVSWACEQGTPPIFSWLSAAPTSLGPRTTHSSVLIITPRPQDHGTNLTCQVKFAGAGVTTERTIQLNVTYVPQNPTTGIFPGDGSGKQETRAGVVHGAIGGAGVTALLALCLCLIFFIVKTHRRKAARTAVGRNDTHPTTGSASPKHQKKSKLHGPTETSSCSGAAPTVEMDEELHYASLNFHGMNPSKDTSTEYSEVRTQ
Chain of human CD33 on U937 cells (endogenous) (human) (P20138 18-364): as above

OD450 at 0.0001 nM [1]: 0.04 OD450
OD450 at 0.001 nM [1]: 0.04 OD450
OD450 at 0.01 nM [1]: 0.04 OD450
OD450 at 0.1 nM [1]: 0.03 OD450
OD450 at 1 nM [1]: 0.03 OD450
OD450 at 10 nM [1]: 0.04 OD450
OD450 at 100 nM [1]: 0.06 OD450
Max MFI [2]: 162 MFI
Max MFI [3]: 389 MFI
OD450 at 0.0001 nM [4]: 0.05 OD450
OD450 at 0.001 nM [4]: 0.06 OD450
OD450 at 0.01 nM [4]: 0.06 OD450
OD450 at 0.1 nM [4]: 0.05 OD450
OD450 at 1 nM [4]: 0.05 OD450
OD450 at 10 nM [4]: 0.05 OD450
OD450 at 100 nM [4]: 0.05 OD450
Max MFI [5]: 140 MFI
OD450 at 0.0001 nM [6]: 0.26 OD450
OD450 at 0.001 nM [6]: 0.25 OD450
OD450 at 0.01 nM [6]: 0.24 OD450
OD450 at 0.1 nM [6]: 0.27 OD450
OD450 at 1 nM [6]: 0.23 OD450
OD450 at 10 nM [6]: 0.24 OD450
OD450 at 100 nM [6]: 0.3 OD450
OD450 at 0.0001 nM [7]: 0.05 OD450
OD450 at 0.001 nM [7]: 0.06 OD450
OD450 at 0.01 nM [7]: 0.06 OD450
OD450 at 0.1 nM [7]: 0.06 OD450
OD450 at 1 nM [7]: 0.06 OD450
OD450 at 10 nM [7]: 0.06 OD450
OD450 at 100 nM [7]: 0.06 OD450
OD450 at 0.0001 nM [8]: 0.06 OD450
OD450 at 0.01 nM [8]: 0.05 OD450
OD450 at 0.1 nM [8]: 0.06 OD450
OD450 at 1 nM [8]: 0.06 OD450
OD450 at 10 nM [8]: 0.08 OD450
OD450 at 100 nM [8]: 0.1 OD450
OD450 at 0.0001 nM [9]: 0.23 OD450
OD450 at 0.001 nM [9]: 0.33 OD450
OD450 at 0.01 nM [9]: 0.2 OD450
OD450 at 0.1 nM [9]: 0.23 OD450
OD450 at 1 nM [9]: 0.22 OD450
OD450 at 10 nM [9]: 0.22 OD450
OD450 at 100 nM [9]: 0.31 OD450
Max MFI [10]: 84 MFI
Substance: anti-hel-hIgG1 antibody against hen egg lysozyme

OD450 (Biotin-C33B904 signal) [11]: 2.24
OD450 (Biotin-C33B904 signal) [12]: 2.3
OD450 (Biotin-C33B904 signal) [13]: 2.22
OD450 (Biotin-C33B904 signal) [14]: 2.27
OD450 (Biotin-C33B904 signal) [15]: 2.21
OD450 (Biotin-C33B904 signal) [16]: 2.33
OD450 (Biotin-C33B904 signal) [17]: 2.46
OD450 (Biotin-C33B904 signal) [18]: 2.19
OD450 (Biotin-C33B904 signal) [19]: 2.16
OD450 (Biotin-C33B904 signal) [20]: 2.38
OD450 (Biotin-C33B904 signal) [21]: 2.35
OD450 (Biotin-C33B904 signal) [22]: 2.34
OD450 (Biotin-C33B904 signal) [23]: 2.21
OD450 (Biotin-C33B904 signal) [24]: 2.08
OD450 (Biotin-C33B904 signal) [25]: 2.13
OD450 (Biotin-C33B904 signal) [26]: 2.17
OD450 (Biotin-C33B904 signal) [27]: 2.34
OD450 (Biotin-C33B904 signal) [28]: 2.3
OD450 (Biotin-C33B904 signal) [29]: 2.3
OD450 (Biotin-C33B904 signal) [30]: 2.26
OD450 (Biotin-C33B904 signal) [31]: 2.35
OD450 (Biotin-C33B904 signal) [32]: 2.17
OD450 (Biotin-C33B904 signal) [33]: 2.17
OD450 (Biotin-C33B904 signal) [34]: 2.35
Substance: hIgG1 (anti-hel-hIgG1 antibody against hen egg lysozyme)
